The target in this assay is T1, mutant full-length huntingtin with 75 glutamines (HttQ75) (UniProt P42858 1-3142).
T1 construct: domain: full-length; In the yeast two-hybrid assay expressed as prey fusion from vector pJG4-5 (hemagglutinin tag); also called mutant huntingtin
Put plainly: yeast two-hybrid, huntingtin prey against TAFII130 bait. The method, then:
All the constructs were verified by DNA sequencing for correct reading frame and orientation. All assays were performed in triplicates and protein expression verified by Western blotting using standard procedures. The ability of the LexA fusion to bind operator was confirmed by a repression assay. The two-hybrid screen assays were performed as described (D. Krainc et al., J. Biol. Chem. 273:26218, 1998).
Because NH₂-terminal fragments of mutant huntingtin can effectively induce cell death in both in vivo and in vitro models (L. Mangiarini, et al., Cell 87:493, 1996; J. K. Copper, et al., Hum. Mol. Genet. 7:783, 1998; D. Martindale, et al., Nature Genet. 18:150, 1998; S. H. Li and X. Y. Li, Hum. Mol. Genet. 7:777, 1998), we examined the interactions of Sp1 and TAFII130 with the 480-amino acid NH₂-terminal fragment of huntingtin. […] FIG. 1 illustrates that Huntingtin interacted with Sp1 and TAFII130 in vitro and in human HD brain tissue. FIG. 1A illustrates results of yeast two-hybrid experiments, as described above herein, performed with full-length (HttQ17 and HttQ75) or truncated huntingtin constructs (Htt480Q17 and Htt480Q68) as prey against bait plasmids containing full-length Sp1 or Sp1 lacking the DNA binding domain (Sp1AB, amino acids 83 through 621).

This is an account of results in patent US20040213780A1 (GENERAL HOSPITAL, published 2004).

T1 sequence (P42858 other isoform, or with tags, fused parts or gaps mutant limits assumed): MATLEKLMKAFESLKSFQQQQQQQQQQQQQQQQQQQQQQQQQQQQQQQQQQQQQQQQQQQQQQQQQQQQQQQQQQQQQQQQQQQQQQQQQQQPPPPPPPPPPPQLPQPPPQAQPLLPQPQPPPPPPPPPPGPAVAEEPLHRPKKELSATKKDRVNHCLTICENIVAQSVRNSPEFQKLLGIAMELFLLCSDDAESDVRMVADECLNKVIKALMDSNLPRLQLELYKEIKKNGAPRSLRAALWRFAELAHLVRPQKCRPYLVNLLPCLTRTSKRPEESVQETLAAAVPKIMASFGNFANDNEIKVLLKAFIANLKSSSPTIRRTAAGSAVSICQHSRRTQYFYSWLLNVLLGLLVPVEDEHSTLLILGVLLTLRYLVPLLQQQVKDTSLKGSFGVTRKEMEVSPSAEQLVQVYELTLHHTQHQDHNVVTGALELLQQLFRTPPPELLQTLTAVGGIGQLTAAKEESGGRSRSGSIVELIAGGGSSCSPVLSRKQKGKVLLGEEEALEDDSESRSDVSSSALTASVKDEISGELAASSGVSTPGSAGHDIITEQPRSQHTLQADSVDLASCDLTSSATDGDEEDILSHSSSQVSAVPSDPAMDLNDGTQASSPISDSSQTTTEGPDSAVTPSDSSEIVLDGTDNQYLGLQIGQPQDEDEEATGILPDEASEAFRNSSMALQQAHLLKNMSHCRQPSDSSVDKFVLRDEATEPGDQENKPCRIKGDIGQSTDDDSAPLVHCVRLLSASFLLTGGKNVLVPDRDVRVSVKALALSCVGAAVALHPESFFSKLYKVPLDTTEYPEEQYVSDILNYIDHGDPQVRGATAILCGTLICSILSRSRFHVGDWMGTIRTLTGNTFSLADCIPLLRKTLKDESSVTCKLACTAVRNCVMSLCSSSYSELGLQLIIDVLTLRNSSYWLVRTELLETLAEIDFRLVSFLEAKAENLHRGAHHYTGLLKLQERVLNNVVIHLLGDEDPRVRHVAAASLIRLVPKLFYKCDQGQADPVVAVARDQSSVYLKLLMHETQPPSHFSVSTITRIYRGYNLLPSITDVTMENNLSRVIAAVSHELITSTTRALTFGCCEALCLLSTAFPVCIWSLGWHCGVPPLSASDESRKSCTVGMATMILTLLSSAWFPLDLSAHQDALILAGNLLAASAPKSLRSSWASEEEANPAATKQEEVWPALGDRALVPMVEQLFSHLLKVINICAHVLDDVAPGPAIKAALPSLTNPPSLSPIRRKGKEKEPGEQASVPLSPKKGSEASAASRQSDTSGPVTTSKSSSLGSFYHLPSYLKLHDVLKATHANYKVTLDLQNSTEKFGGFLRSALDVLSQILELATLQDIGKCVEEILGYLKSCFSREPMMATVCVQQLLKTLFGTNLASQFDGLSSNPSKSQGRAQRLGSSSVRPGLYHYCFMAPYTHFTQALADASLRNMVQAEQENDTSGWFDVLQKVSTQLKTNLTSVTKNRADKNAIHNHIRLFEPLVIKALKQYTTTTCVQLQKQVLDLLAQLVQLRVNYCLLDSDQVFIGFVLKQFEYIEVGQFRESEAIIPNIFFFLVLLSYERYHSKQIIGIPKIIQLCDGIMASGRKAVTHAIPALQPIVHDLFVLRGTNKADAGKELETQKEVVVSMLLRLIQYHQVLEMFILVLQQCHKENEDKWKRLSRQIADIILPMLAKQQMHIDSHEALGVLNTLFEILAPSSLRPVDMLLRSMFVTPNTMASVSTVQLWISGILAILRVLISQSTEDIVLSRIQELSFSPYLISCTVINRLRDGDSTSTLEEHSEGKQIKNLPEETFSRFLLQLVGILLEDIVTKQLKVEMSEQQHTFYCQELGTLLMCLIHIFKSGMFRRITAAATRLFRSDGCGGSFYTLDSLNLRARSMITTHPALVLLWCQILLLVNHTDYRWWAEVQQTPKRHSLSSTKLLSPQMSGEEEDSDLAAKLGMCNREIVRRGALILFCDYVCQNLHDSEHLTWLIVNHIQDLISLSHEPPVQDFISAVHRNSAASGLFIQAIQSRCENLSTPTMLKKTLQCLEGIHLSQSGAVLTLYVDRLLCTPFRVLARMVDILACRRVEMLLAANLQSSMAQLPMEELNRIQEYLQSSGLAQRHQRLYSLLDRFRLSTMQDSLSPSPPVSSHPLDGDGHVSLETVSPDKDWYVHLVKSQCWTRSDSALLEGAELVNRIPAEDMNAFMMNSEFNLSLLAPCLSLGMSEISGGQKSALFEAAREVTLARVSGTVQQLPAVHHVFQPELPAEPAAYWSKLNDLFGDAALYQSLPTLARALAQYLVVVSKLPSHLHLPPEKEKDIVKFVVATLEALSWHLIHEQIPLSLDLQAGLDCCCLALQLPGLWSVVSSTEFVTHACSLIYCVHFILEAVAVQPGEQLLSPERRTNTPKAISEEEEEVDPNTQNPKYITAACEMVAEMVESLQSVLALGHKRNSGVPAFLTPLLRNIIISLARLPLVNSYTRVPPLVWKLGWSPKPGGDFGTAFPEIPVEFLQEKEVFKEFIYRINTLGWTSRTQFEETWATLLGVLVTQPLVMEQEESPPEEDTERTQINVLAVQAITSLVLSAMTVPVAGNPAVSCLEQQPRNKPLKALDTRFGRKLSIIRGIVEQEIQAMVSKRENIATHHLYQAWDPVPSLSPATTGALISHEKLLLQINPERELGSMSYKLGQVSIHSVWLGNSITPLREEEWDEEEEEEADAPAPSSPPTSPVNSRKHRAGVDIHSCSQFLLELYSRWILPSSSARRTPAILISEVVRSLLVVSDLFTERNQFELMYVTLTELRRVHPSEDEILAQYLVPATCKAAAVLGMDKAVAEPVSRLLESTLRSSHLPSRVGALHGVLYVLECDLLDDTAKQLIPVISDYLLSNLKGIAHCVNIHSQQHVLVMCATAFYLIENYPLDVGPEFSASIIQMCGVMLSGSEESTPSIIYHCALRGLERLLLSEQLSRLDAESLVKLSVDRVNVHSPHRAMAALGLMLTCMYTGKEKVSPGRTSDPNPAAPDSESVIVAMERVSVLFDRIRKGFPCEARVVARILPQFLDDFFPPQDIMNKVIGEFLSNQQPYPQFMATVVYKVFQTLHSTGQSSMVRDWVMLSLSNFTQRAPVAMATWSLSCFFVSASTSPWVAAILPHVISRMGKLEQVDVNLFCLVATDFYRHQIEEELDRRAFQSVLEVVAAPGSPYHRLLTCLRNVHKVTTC

B1: TAFII130 (coactivator), full length (other, UniProt O00268 139-1085, looked up)
chain: PVPAAAAVAAGPEPAPAGPAKPAGPAALAARAGPGPGPGPGPGPGPGPGKPAGPGAAQTLNGSAALLNSHHAAAPAVSLVNNGPAALLPLPKPAAPGTVIQTPPFVGAAAPPAPAAPSPPAAPAPAAPAAAPPPPPPAPATLARPPGHPAGPPTAAPAVPPPAAAQNGGSAGAAPAPAPAAGGPAGVSGQPGPGAAAAAPAPGVKAESPKRVVQAAPPAAQTLAASGPASTAASMVIGPTMQGALPSPAAVPPPAPGTPTGLPKGAAGAVTQSLSRTPTATTSGIRATLTPTVLAPRLPQPPQNPTNIQNFQLPPGMVLVRSENGQLLMIPQQALAQMQAQAHAQPQTTMAPRPATPTSAPPVQISTVQAPGTPIIARQVTPTTIIKQVSQAQTTVQPSATLQRSPGVQPQLVLGGAAQTASLGTATAVQTGTPQRTVPGATTTSSAATETMENVKKCKNFLSTLIKLASSGKQSTETAANVKELVQNLLDGKIEAEDFTSRLYRELNSSPQPYLVPFLKRSLPALRQLTPDSAAFIQQSQQQPPPPTSQATTALTAVVLSSSVQRTAGKTAATVTSALQPPVLSLTQPTQVGVGKQGQPTPLVIQQPPKPGALIRPPQVTLTQTPMVALRQPHNRIMLTTPQQIQLNPLQPVPVVKPAVLPGTKALSAVSAQAAAAQKNKLKEPGGGSFRDDDDINDVASMAGVNLSEESARILATNSELVGTLTRSCKDETFLLQAPLQRRILEIGKKHGITELHPDVVSYVSHATQQRLQNLVEKISETAQQKNFSYKDDDRYEQASDVRAQLKFFEQLDQIEKQRKDEQEREILMRAAKSRSRQEDPEQLRLKQKAKEMQQQELAQMRQRDANLTALAAIGPRKKRKVDCPGPGSGAEGSGPGSVVPGSSGVGTPRQFTRQRITRVNLRDLIFCLENERETSHSLLLYKAFLK
notes: domain: full-length; in striatal neurons overexpressed
Take B1: the binding result is reported as “binds”.
